# Results from PMC5586252, “PP2A-B′ holoenzyme substrate recognition, regulation and role in cytokinesis” (Cell Discovery, 2017).
# Columns and labels:
# B′ε regulatory subunit = molecular target: T1, B′ε regulatory subunit (UniProt Q16537 1-467); test: pull-down; about 10 μg GST-tagged B′-binding motif or GST-pCyk4 on glutathione (GS4B) resin; 10 μg holoenzyme, B′ε or PR70 added; 25 mM Tris pH 8.0, 150 mM NaCl, 3 mM DTT; SDS-PAGE, Coomassie; conditions: both partners purified
# T1 construct: PP2A regulatory subunit B′ε, full-length; prey in a GST pull-down, so probably with the GST tag cleaved by TEV; source: E. coli DH5α, purified (GS4B, anion exchange, gel filtration)
# B′γ1 regulatory subunit = B′γ1 regulatory subunit (UniProt Q13362-2 1-449); test: ITC; 1 mM peptide titrated to 20–50 μM B′γ1; 20 mM HEPES pH 7.5, 200 mM NaCl; VP-ITC; conditions: both partners purified
# T1 sequence (Q16537 whole entry): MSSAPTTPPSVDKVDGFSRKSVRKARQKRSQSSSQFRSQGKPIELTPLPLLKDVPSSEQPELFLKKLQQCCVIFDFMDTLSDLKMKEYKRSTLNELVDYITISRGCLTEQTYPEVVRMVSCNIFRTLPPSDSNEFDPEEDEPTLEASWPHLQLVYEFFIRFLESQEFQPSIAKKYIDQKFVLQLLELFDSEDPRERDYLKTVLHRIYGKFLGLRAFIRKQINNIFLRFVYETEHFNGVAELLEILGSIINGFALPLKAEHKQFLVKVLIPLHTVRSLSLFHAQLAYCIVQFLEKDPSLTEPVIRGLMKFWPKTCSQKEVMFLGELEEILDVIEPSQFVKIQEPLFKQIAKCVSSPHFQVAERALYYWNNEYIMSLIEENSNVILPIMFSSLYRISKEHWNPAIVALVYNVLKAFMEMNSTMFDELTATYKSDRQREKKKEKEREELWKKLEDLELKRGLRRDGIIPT
binding result (B′ε regulatory subunit),Kd (B′γ1 regulatory subunit) [nM],fold stronger binding than the native Cyk4 peptide (B′γ1 regulatory subunit) [fold],Binder
binds,,,"GST-pCyk4 (1–177), Plk1-phosphorylated (domain or fragment, human, UniProt Q9H0H5 1-177, looked up, phosphorylated by Plk1: mono- to pentakis-phosphorylated forms; sites of the tetrakis form S149, S157, S164 and S170, also called GST-Cyk4; source: phosphorylated by Plk1; not shown: GST, N-terminal, kept) MDTMMLNVRNLFEQLVRRVEILSEGNEVQFIQLAKDFEDFRKKWQRTDHELGKYKDLLMKAETERSALDVKLKHARNQVDVEIKRRQRAEADCEKLERQIQLIREMLMCDTSGSIQLSEEQKSALAFLNRGQPSSSNAGNKRLSTIDESGSILSDISFDKTDESLDWDSSLVKTFKL"
,1590,15,"LSTIDEEGS [Cyk4 S149E peptide (synthetic, phosphomimetic)]"
